Laboratory results published in the MegaScale stability set (Tsuboyama et al. 2023).

B1: EEHEE_rd4_0003 (parent)
chain: KKVTINGVEIKFNNPEEAVKFALELAKRLNLRIEFHGDQIKIE

Variants of: B1
Test: folding stability dG (cDNA display proteolysis); higher = more stable
Conditions: PBS, room temperature

Folding stability dG [kcal/mol]: each site, then its substitutions
L23: W 2.35 | P 0.007 | T 2.29 | A 1.91 | H 1.95 | K 2.17 | I 2.57 | G 1.43 | Y 2.43 | C 3.18 | S 1.88 | E 2.12 | F 2.46 | N 1.95 | V 2.29 | R 2.19 | M 2.52 | D 1.47 | Q 2.13
R32: G 1.6 | F 2.12 | I 2.36 | S 2.17 | T 2.31 | Y 2.15 | V 2.33 | K 2.54 | H 2.24 | M 2.07 | N 2.03 | C 2.81 | L 2.19 | Q 2.1 | E 1.64 | D 1.56 | W 2.2 | P 1.71
K27: M 2.57 | F 2.63 | T 2.52 | P 1.37 | G 2.39 | I 2.4 | N 2.32 | W 2.47 | Y 2.44 | Q 2.47 | E 2.38 | A 2.72 | H 2.48 | C 3.23 | V 2.24 | L 2.62 | S 2.52 | D 2.03 | R 2.79
H36: I 2.93 | F 2.78 | A 2.62 | C 3.21 | D 2.76 | G 2.28 | K 2.53 | E 2.58
R28: K 2.33 | C 3.28 | D 1.69 | M 2.5 | F 2.5 | H 2.22 | T 2.2 | E 2.08 | A 2.39 | I 2.54 | L 2.57 | N 1.99 | W 2.68 | Y 2.63 | P 1.29 | S 2.35 | V 2.36 | Q 2.21 | G 1.91
L29: N 1.72 | C 3.71 | M 2.38 | K 1.6 | G 1.88 | I 1.9 | S 1.55 | D 1.29 | F 2.65 | P 1.52 | W 2.43 | Y 2.67 | H 2.21 | Q 1.73 | E 1.66 | R 1.43 | V 1.77 | T 1.61 | A 1.74
I33: A 1.69 | P 1.29 | Y 1.74 | E 0.529 | W 2.08 | R 0.847 | F 1.98 | V 2.67 | Q 1.08 | M 1.92 | S 0.908 | L 2.35 | H 0.908 | T 1.31 | G 0.975 | K 0.882 | N 0.797 | D 0.681
E34: I 2.93 | C 3.19 | F 2.74 | T 2.86 | S 2.77 | M 2.47 | K 2.42 | W 2.62 | A 2.29 | P 1.48 | V 2.73 | R 2.58 | H 2.42 | Y 2.77 | G 1.96 | L 2.49 | D 2.12 | N 2.27 | Q 2.44
N30: L 2.51 | A 2.23 | R 2.61 | M 2.43 | T 2.12 | K 2.55 | I 2.34 | V 2.29 | Y 2.42 | C 3.46 | W 2.72 | D 1.9 | H 2.47 | P 1.82 | Q 2.38 | E 1.86 | F 2.55 | S 2.2 | G 2.65
A26: F 2.56 | T 1.92 | L 2.52 | D 0.982 | C 2.98 | P 1.19 | E 1.33 | W 2.14 | K 1.66 | S 2.23 | V 2.26 | N 1.43 | I 2.3 | R 1.73 | G 1.91 | H 1.47 | M 2.37 | Q 1.78 | Y 2.29
E24: L 2.66 | D 2.46 | T 2.43 | W 3.15 | N 2.35 | C 4.19 | K 2.4 | M 2.73 | F 2.58 | Q 2.57 | S 2.49 | G 2.28 | Y 2.73 | R 2.55 | P 1.47 | H 2.23 | V 2.35 | I 2.49 | A 2.88
A22: N 0.81 | C 2.79 | M 2.59 | Q 1.22 | Y 2.39 | K 1.21 | P 0.416 | H 1.32 | T 2 | R 1.16 | D 0.407 | W 2.68 | L 2.98 | F 2.74 | E 0.979 | I 3.21 | G 1.58 | V 2.74 | S 1.59
F35: P 1.31 | M 2.24 | T 1.82 | H 1.88 | Q 1.79 | V 2.37 | L 2.2 | K 1.78 | A 1.71 | C 3.05 | G 1.41 | E 1.63 | W 2.7 | N 1.46 | R 1.8 | S 1.64 | Y 2.41 | I 2.58 | D 1.5
K20: D 1.93 | A 2.64 | R 2.81 | P 1.69 | M 2.44 | N 2.13 | H 2.2 | F 2.51 | T 2.24 | Y 2.47 | G 1.77 | V 2.2 | E 2.28 | C 3.78 | Q 2.44 | L 2.49 | I 2.38 | S 2.24
A18: T 1.88 | S 1.93 | Y 2.36 | W 2.78 | V 2.48 | R 1.72
F21: R 1.76 | E 1.35 | S 1.47 | K 1.66 | A 1.85 | H 1.52 | V 1.74 | I 2.03 | P 0.505 | Y 2.49 | G 1.16 | Q 1.57 | M 1.88 | D 0.978 | N 1.27 | C 3.19 | L 2.03 | W 2.81 | T 1.56
L31: C 2.84 | I 2.5 | Y 2.14 | A 2.72 | N 0.824 | P 0.746 | T 1.71 | W 2.51 | R 1.34 | K 1.2 | S 1.7 | F 2.25 | V 2.56 | M 2.67 | D 0.559 | G 2.42 | Q 1.13 | E 0.917 | H 1.4
V19: A 2.19 | N 1.83 | D 1.61 | M 2.94 | F 2.75 | Y 2.85 | S 1.86 | P 1.04 | G 1.54 | E 2.04 | L 3.07 | Q 2.06 | T 2.22 | K 2.33 | W 2.98 | I 2.9 | C 3.56 | R 2.5 | H 2.21
L25: V 2.24 | W 2.53 | F 2.44 | S 1.11 | K 0.98 | M 2.46 | A 1.9 | Q 1.62 | D 0.443 | C 2.82 | R 0.955 | I 2.53 | H 1.48 | N 1.32 | P -0.052 | G 0.776 | E 1.56 | T 1.7 | Y 2.72
